According to publication doi:10.1101/2020.10.14.340034:

Target: nsp16 (2'-O-methyltransferase);nsp10 (SARS-CoV-2;SARS-CoV-2, UniProt P0DTD1;P0DTD1 6799-7096;4254-4392, |)
Assay: competition

B1: Biotin-RNA N7-meGpppACCCCC-Biotin (ssRNA)
RNA: ACCCCC
modifications: 5' N7-methylguanosine cap (m7Gppp, cap-0); cap G not in strand
apparent K (half saturation): 4.3 µM
